For the assay, the target named is UCH37•RPN13 (UniProt Q16186). Nature of the assay: steady-state enzyme inhibition kinetics; cleavage of K6/K48 tri-Ub by UCH37•RPN13 (0.5 μM) with varied Nb-ncS1; 50 mM HEPES pH 7.5, 50 mM NaCl, 1 mM DTT; 37 °C; competitive inhibition fit.
Sequence of UCH37•RPN13 (Q16186 whole entry, looked up): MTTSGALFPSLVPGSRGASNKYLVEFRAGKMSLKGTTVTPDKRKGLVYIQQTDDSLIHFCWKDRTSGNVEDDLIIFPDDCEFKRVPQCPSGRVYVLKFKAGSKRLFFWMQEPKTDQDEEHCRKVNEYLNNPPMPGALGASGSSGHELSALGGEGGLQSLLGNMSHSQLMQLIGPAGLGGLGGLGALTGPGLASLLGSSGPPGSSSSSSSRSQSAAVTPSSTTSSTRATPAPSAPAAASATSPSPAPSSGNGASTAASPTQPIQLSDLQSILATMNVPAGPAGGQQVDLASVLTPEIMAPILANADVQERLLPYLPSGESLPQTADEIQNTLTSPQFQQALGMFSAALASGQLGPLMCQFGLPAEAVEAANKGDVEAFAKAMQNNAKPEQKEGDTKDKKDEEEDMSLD

B1: Nb-ncS1 (His-tagged) (VHH)
VHH: RVQLQESGGGLVQAGGSLRLSCAASGYIFRSYRMGWYRQAPGKERELVAAIGLGGNTYYADSVKGRFTISRDNAKNTVYQQMNSLKPEDTAVYYCAALYGKPPAFSPFPYWGQGTQVTVSS
Consider B1, for which the Ki amounted to 120 nM.

One may read the Ki as the dissociation constant of the complex between target and ligand, obtained from inhibition or displacement.

For the origin of these results see article doi:10.1101/2025.08.11.669711.
